Measurements taken from patent US8088892B2, “Inhibitors of proteins from the Rho-GEF family” (Centre National de la Recherche Scientifique (C.N.R.S.), priority 2002, dated 2012).

Biological target: T1, TrioGEFD2 (DH2PH2, amino acids 1848-2298) (Homo sapiens, UniProt O75962)
T1 construct: TrioGEFD2 (DH2PH2, amino acids 1848-2298); expressed in transfected cells; host or cells: yeast strain EGY048
Assay: Binding specificity of aptamers in yeast (two-hybrid, growth on selective medium)
Design: key to Binding in yeast: +++^1 and +^1 represent respectively a full and a partial (see FIG. 1) binding capacity; +++^1 and +^1 represent respectively a full and a partial (see FIG. 1) binding capacity; −−^1 represents a lack of binding
Text: Trx represents the thioredoxin protein with no inserted peptide.
In order to identify specific inhibitors of TrioGEFD2, a recently developed strategy was used, this strategy being derived from the yeast two hybrid system, where the cDNA library of preys has been replaced by a combinatorial library of short peptides (20 amino acids) in fusion with the bacterial protein thioredoxin A (Colas et al., 1996). This strategy has been successfully used to isolate specific inhibitors of the cyclin-dependent kinases (Cdks), the cell cycle transcription factor E2F, or the viral HPV16 E6 oncoprotein and HBEV core protein (Colas et al., 1996; Butz et al., 2001; Fabrizzio et al., 1999; Geyer et al., 2000). The TrioGEFD2 bait was constructed as follows: plasmid pMTHATrio1848-2298 (Bellanger et al., 1998) was digested with EcoRI/XhoI and the insert cloned in pEG202EcoRI/XhoI to generate the bait pEG202TroGEFD2. Yeast strain EGY048 (Colas et al., 1996) was transformed with pEG202TrioGEFD2 and subsequently with the library of Thioredoxin constrained aptamers according to standard procedures (Ito et al., 1983). After transformation, cells were allowed to recover for 4 hours in galactose containing medium before plating on selective galactose medium. Of the 2×10^6 screened colonies, those growing in the selective medium were recovered and retested for interaction. […]

Binding in yeast (RhoGEF TrioDH2PH2): +++^1 | Binding to TrioGEFD2 (DH2PH2) in yeast (growth on selective medium): binding to TrioGEFD2
B1: TRIAPα: aptamer of 154 amino acids: variable region of 42 amino acids inserted into the thioredoxin protein; tested as GST fusion (protein)
chain: MSDKIIHLTDDSFDTDVLKADGAILVDFWAEWCGPAREGADGAICGYNLATLVMLGPSERVFCPLCEPCSSDIYELMGPCKMIAPILDEIADEYQGKLTVAKLNIDQNPGTAPKYGIRGIPTLLLFKNGEVASATKVGALSKGQLKEFLDANLA
